Results as given in the supplement of paper PMC10567573.
± gives the standard deviation.

Test: protein stability index of a GFP-peptide fusion (GPS, HEK-293T) (PSI 1-6); higher = more stable
Conditions: c terminus: a fixed tail appended
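Also: 24-mer peptide tiles fused after GFP, lentivirally expressed, FACS-sorted into six equal bins by GFP/DsRed ratio, decoded by Illumina sequencing, PSI is the read-weighted mean bin number.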

Sequence	protein stability index (treatment: DMSO)	protein stability index (treatment: MLN4924 1 uM, 8 h)
GKVLQNKQAEICQLEEKLEIANED [CCDC89]	5.26 ± 0.37	5.44 ± 0.25
SYATEADIISTVEFNHTGELLATG [PPP2R2B]	3.9 ± 0.43	3.94 ± 0.32
MAAGSEPESVEASPVVVEKSNSYP [KMT2E]	5.3 ± 0.11	5.19 ± 0.24
KTRTVFSSTQLCVLNDRFQRQKYL [NANOGP8]	2.5 ± 0.12	2.67 ± 0.29
TREKAKFSDGEKCRREAFRRLGNG [PHTF1]	3.65 ± 0.17	3.62 ± 0.39
MVQLDSIEDLEVTCTWKLPTLAKF [PRAME]	2.6 ± 0.45	2.75 ± 0.64
HTHPSACQGQRLFEKLLQLTSQNI [PLD5]	2.21 ± 0.21	1.84 ± 0.37
TQIEDATEKLKANAESSKTWLKGK [TRIM14]	4.95 ± 0.37	5 ± 0.18
YTSPDKLKDIFMFITRQLKGLEDT [PDS5B]	3.62 ± 0.19	3.84 ± 0.3
LGYFIRSWRTLAILVNLQGTVVFL [SLC22A15]	2.71 ± 0.55	2.62 ± 0.75
NETADLGLDIGAQGEPLGYRQDDP [CTNNB1]	5.41 ± 0.2	5.46 ± 0.23
VSGLLVGYELGIISGALLQIKTLL [SLC2A12]		2.97 ± 1.2
GFALNPDKKTCTKIDYCASSNHGC [MATN2]	3.53 ± 0.31	3.57 ± 0.64
LHIFQLNEDGPSSENLEEETENII [TRIP13]	3.96 ± 0.58	4.21 ± 0.28
ITTRVNSEQEHFLIVPFGLLYSEV [ADD1]	2.74 ± 0.79	2.61 ± 0.81
WESRTGDQYSYSSLVMGSQTESAL [LCOR]	3.44 ± 0.27	3.51 ± 0.46
RTDYSGRGELSARQMHLARFLRML [RAD51]	2.18 ± 0.42	2.38 ± 0.26
RHLNDDDVTGSVKSERRNLLEDDS [VAMP4]	5.28 ± 0.2	5.42 ± 0.19
AEGVVLSDSPDAADSTSFDVQLGD [PPTC7]	5.4 ± 0.59	5.64 ± 0.15
FVTYVFFVFFVLLNMFLAIINDTY [PKD2L1]	2.3 ± 0.47	2.26 ± 0.45
LRGKSIKRAPGEETEKEEEEEDRE [NEUROD6]	5.66 ± 0.45	5.67 ± 0.3
QAEVLSRQITSPVSGINGDIRAKK [HNF4A]	5.05 ± 0.22	5.09 ± 0.036
PSDPPAMSPGPLDALSSPTSVQEA [C2CD2L]	5.54 ± 0.18	5.42 ± 0.2
ITESFTELARIVLLRHGMDRLWRP [RAB40B]	2.84 ± 0.1	2.86 ± 0.25

Sequence	protein stability index (treatment: DMSO)	protein stability index (treatment: MLN4924 1 uM, 8 h)
TLARCAKDILGFAVMFFIVFFAYA [PKD2L1]	3.07 ± 0.66	2.68 ± 0.35
GVRVSVPCPSTTCCRACSVSFSTG [BET1L]	2.49 ± 0.38	2.35 ± 0.31
RRAGAACTLRQKLIFSPCSDCEEE [WEE1]	4.2 ± 0.25	4.39 ± 0.15
WDKHACPAYVGPEILSSRASYSGK [TRIB3]	3.53 ± 0.096	3.5 ± 0.24
SYLMDHFIPSSHNDRDFLTRIFTE [PPEF2]	2.5 ± 0.19	2.51 ± 0.28
GSVGAAICGLQQDEEVSSLTCDAL [CCND2]	4.54 ± 0.35	4.63 ± 0.25
LLMVRASRRSGKTSAVLKAGRQSV [C6orf223]	2.63 ± 0.17	2.85 ± 0.19
VQLRFCGRQPCGRFLRAYREGALR [TRADD]	2.61 ± 0.53	2.29 ± 0.65
FQSHEPEFDYLKSLEIEEKINKIR [PPP2R2B]	3.26 ± 0.36	3.56 ± 0.31
KAQIWDTAGQERYRAITSAYYRGA [RAB11A]	2.88 ± 0.16	2.98 ± 0.31
SHLSDTGISALVEIPKNCVVAAVG [WDR41]	3.09 ± 0.31	3.22 ± 0.25
QALAQAIKEAKEQHPDMSVTKVVV [EPB41L3]	2.44 ± 0.34	2.53 ± 0.27
PDGGRADEWACELRLFGRVLERAA [P3H4]	2.46 ± 0.3	2.62 ± 0.38
SDGWWRGSYNGQIGWFPSNYVLEE [NCK2]	2.89 ± 0.35	2.73 ± 0.12
TAFLPDSKCLVDDGTGRMPTLKKC [GALNT9]	4.17 ± 0.18	4.16 ± 0.31
CGSARPKPYDPPGEKMVAAKVKGE [ATF4]	4.57 ± 0.17	4.82 ± 0.33
AKPNMIISVNGDVITIKSESTFKN [FABP4]	3 ± 0.56	3.03 ± 0.66
LIPLANTGIVNHTHSRMGSIMSTG [CARM1]	2.59 ± 0.12	2.47 ± 0.14
RELESREAELRRRDTFYKEQLERI [CHCHD6]	4.56 ± 0.12	4.87 ± 0.39
PCAGSTSLSHSPGCSSTQGNGRPG [LCOR]	3.74 ± 0.42	4.16 ± 0.33
ESKVREATNDDPWGPSGQLMGEIA [CLINT1]	4.7 ± 0.12	4.78 ± 0.096
TNMARIREIMEKFGKQPVSLPARR [CPXM2]	2.72 ± 0.1	3.06 ± 0.31
LQKKLDNLQCLYCEKTFRDKNTLK [ZNF277]	2.64 ± 0.25	2.86 ± 0.3
MAEISRIQYEMEYTEGISQRMRVP [MFF]	2.67 ± 0.3	2.79 ± 0.6

Sequence	protein stability index (treatment: DMSO)	protein stability index (treatment: MLN4924 1 uM, 8 h)
MTWSPLACGIVSGKYDSGIPPYSR [KCNAB2]	3.19 ± 0.54	2.92 ± 0.3
MDSGCWLFGGEFEDSVFEERPERR [C8orf76]	4.06 ± 0.33	4.29 ± 0.27
RKISVNAKDEDQWTALHFAAQNGD [RIPK4]	4.19 ± 0.26	4.59 ± 0.53
LRKKKTTKLRLERVKFRRQEANAR [NEUROD6]	3.59 ± 0.34	3.59 ± 0.27
SPHSPDSSQSSLAQEEEEEDQGRT [DDIT3]	5.57 ± 0.21	5.54 ± 0.17
LDQLLRHVMNPLETLSITNCRLSE [PRAME]	2.59 ± 0.62	2.39 ± 0.49
KAMLQLHERGLKLHQTIYNQACKL [INTS4]	2.23 ± 0.44	2.21 ± 0.26
FPNQKSEAAEPPKTPPSSCDSTNA [KMT5A]	5.52 ± 0.13	5.53 ± 0.2
TPMLNPLIYTLKNAEMKSAMRKLW [OR4A15]	2.11 ± 0.32	2.04 ± 0.16
QVSHDFLETRFKIQQLLEPQQYMA [FBXO34]	3.85 ± 0.49	4.15 ± 0.29
QPAKKPLLWSDPADNKIVSHLLVA [ESRRG]	2.36 ± 0.17	2.63 ± 0.26
PSPSEVITPWTPSPSEKNSSFTWS [SMTNL2]	4.22 ± 0.095	4 ± 0.062
PVPSAPVIDLAESLVADNCVTLVW [FSD1]	2.56 ± 0.37	2.1 ± 0.24
ADIISTVEFNHTGELLATGDKGGR [PPP2R2C]	4.52 ± 0.42	4.66 ± 0.44
LLLPGLNQHGIILKYIGMAKREIN [ARL6IP1]	2.42 ± 0.68	2.38 ± 0.97
PDLVKGPWTKEEDQKVIELVKKYG [MYBL2]	3.86 ± 0.22	3.99 ± 0.21
AQVFPESPESESDHEHEEADLELS [GNAS]	5.44 ± 0.27	5.46 ± 0.23
RYIHSMSLVHMDIKPSNIFISRTS [WEE1]	1.9 ± 0.47	2.46 ± 0.31
ITYESSQVDPGTDLEPGVLMSAQT [EPB41L3]	4.29 ± 0.33	4.7 ± 0.085
PPFMIALACLHVACVVQQKDARQW [CCNC]	3.3 ± 0.18	3.08 ± 0.35
GFRESDSAKPASLRLLQHTPSARR [C6orf223]	4.49 ± 0.38	4.67 ± 0.3
PVLQSRTGLVYDQNMMNHCNLWDS [HDAC6]	2.75 ± 0.41	2.93 ± 0.33
LYTGELDENERDLMHIAHIAELLE [RHOBTB2]	2.69 ± 0.33	3.09 ± 0.34
EPQSEPVRVLDMVAKLESECLKRQ [FBXO34]	4.88 ± 0.28	4.9 ± 0.054
